According to patent CN108239149A (NANJING LEGEND BIOTECHNOLOGY CO LTD, dated 2018):
Changes are numbered by the printed parent chain.

B1: 42G2D7C3 (antibody, V domains shown)
VH: DVQLLESGPGLVKPSQSLSLTCSVTGYSITSGYYWNWIRQFPGNNLEWMGSINYDGSNDYNPSLQDRISITRDTSKNQFFLKLNSVTTEDTATYYCARRLDYWGQGTTLIVSS
VL: QIVLTQSPAIMSASPGEKVTISCSASSFINYMYWYQQKPGSSPKPWILRTSTLASGVPARFSGSGSGTSYSLTISSMEAEDAATYYCQQYHSYPLTFGAGTKLELK
notes: Made recombinantly as variable region + constant region; also called 42G2D7D3
B2: 53C1F3D4 (antibody, V domains shown)
VH: QVQLQQSGNELARPGASVRLSCKASGYIFTGYGITWVRQRPGQGLEWIGEIFPRRVNTYYSEKFKGRATLTADISSSTAYMELRSLTSEDSAVYFCARDYDPYFALDYWGQGTSVTVSS
VL: DIVMTQSHKFMSTSVGDRVSITCKASQDVSTAVDWYQQKPGQSPKLLIYSASYRYTGVPDRFTGSGSGTAFTFTISGEQAEDLAVYYCQQHYSIPFTFGGGTKLEIK
notes: Mouse hybridoma clone; Made recombinantly as variable region + constant region in HEK293-6E
B3: 51F3D2G4 (antibody, V domains shown)
VH: QVQLQQSGAELARPGASVRLSCKASGYIFTGYGISWVKQRTGQGLEWIGEIFPRTANTYFNEKFKGKATLTADKSSSTAYMELRSLTSEDSAVYFCARDYDPYYALDYWGQGTSVTVSS
VL: B2 VL with S20T, G77S, I94V
notes: as for B2
B4: 18B7F4G8 (antibody, V domains shown)
VH: DVQLQESGPDLVKPSQSLSLTCTVTGYSITSGYTWHWIRQFPGNKLEWMGYIHYSGSTKYNPSLKSRFSITRDTSKNQFFLQLNSMTAEDTATYYCARNSLFASWGHGTLVTVSA
VL: DIVLTQSPASLAVSLGQRATISCRASESVDTYGDSFMHWFQQKPGQPPKLLIYRASNLESGIPARFSGSGSRTDFTLTINPVEADDVATYYCQQSNEAPYTFGGGTKLEIK
notes: Mouse hybridoma clone; Detected with goat anti-mouse IgG
B5: 29A8H8C7 (antibody, V domains shown)
VH: DVQLQGSGPGLVKPSQSLSLTCTVTGYSITSDFAWDWIRQFPGNKLEWMGHIRFSGTTSYNPSLKSRISITRDTSKNQFFLQLNSVTSEDTATYYCARSTLITKGFFDYWGQGTTLTVSS
VL: DIVMTQSHKFMSTSVGGRVSITCKASQDVSPAVAWYQQKPGQSPKLLIYWASTRHTGVPDRFTGSGSGTDFTLTISSVQTEDLALYYCQQHYSTPWTFGGGTKLEIK
notes: as for B2

Target: T1, 融合至人IgG1 Fc段的人PD-L1胞外结构域的重组蛋白PD-L1-Fc (GenScript, Z03371) (human, UniProt Q9NZQ7 19-238, biotin-labelled in the PD-1 competition ELISA (site not stated))
T1 construct: extracellular domain; Bought reagent (GenScript Z03371); also called 重组PD-L1-Fc; 生物素标记的PD-L1-Fc; not shown: Human IgG1 Fc segment
T1 sequence (Q9NZQ7 19-238 limits assumed, one chain of several): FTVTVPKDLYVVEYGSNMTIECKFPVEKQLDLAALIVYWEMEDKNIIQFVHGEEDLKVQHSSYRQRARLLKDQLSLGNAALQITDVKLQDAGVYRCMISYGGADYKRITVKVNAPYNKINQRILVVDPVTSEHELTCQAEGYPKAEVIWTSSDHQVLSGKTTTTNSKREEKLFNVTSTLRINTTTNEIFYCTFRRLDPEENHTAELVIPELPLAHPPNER
Experiment: indirect ELISA, PD-L1-Fc coated at 0.5 μg/ml, antibody titrated

EC50 [µg/mL] | Binder
0.00458 | B1
0.00467 | B2
0.0063 | B3
0.00531 | B4
0.00498 | B5

Target: 人PD-L1 expressed on cells (表达PD-L1的CHO细胞) (human) (UniProt Q9NZQ7)
Experiment: cell-based or functional assay

IL-2分泌 (混合淋巴细胞反应) EC50 [µg/mL] | 相对光单位(RLU) NFAT报告细胞 EC50 [µg/mL] | Binder
0.235 | 1.17 | B1
0.0947 | 0.576 | B2
0.209 | 0.883 | B3
0.359 | 0.359 | B4
0.101 | 0.751 | B5

Target: T1, 融合至人IgG1 Fc段的人PD-L1胞外结构域的重组蛋白PD-L1-Fc …
Experiment: competition ELISA: antibody titrated against biotinylated PD-L1-Fc binding to coated human PD-1

IC50 [µg/mL] | Binder
0.48 | B1
0.32 | B2
0.4 | B3
0.39 | B5
